# Experimental data published in patent US20240010750A1 (Bayer, published 2024).
# Numbering of substitutions follows the chain as printed. Like-named read-outs stand apart in the source and are kept apart here.
# T1: human alpha2-Antiplasmin (human, UniProt P08697 40-491)
# T1 sequence: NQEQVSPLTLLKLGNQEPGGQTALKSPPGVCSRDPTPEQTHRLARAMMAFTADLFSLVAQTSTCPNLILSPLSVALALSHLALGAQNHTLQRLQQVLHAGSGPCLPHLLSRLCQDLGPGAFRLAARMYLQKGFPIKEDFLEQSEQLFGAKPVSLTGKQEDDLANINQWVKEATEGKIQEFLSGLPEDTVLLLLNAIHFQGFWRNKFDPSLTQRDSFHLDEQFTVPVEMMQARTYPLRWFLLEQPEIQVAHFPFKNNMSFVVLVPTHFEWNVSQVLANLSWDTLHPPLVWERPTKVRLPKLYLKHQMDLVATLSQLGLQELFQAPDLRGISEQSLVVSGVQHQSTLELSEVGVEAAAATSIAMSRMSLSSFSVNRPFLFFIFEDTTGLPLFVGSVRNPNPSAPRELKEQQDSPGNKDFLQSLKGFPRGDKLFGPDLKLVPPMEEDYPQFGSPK
# T2: cynomolgus alpha2-Antiplasmin (cynomolgus (Macaca fascicularis), UniProt P08697 28-491 (human entry))
# T2 construct: Made in house in the same way as the rabbit protein; also called cynomolgus A2AP; Macaca fascicularis A2AP
# T2 chain: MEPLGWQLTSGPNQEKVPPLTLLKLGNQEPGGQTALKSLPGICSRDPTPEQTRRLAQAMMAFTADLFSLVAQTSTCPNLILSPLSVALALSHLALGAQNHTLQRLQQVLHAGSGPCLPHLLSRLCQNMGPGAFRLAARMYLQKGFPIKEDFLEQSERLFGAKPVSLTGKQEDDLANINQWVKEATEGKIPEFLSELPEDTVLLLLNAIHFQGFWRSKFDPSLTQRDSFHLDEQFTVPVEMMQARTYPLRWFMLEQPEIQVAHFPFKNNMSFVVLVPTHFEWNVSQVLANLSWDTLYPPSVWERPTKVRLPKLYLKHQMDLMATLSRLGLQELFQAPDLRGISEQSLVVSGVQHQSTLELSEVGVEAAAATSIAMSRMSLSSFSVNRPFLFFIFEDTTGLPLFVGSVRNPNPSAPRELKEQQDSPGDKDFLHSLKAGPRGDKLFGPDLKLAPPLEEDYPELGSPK
# T3: rabbit alpha2-Antiplasmin (rabbit (Oryctolagus cuniculus))
# T3 construct: Made in house in HEK293 cells, purified by Ni-IMAC and SEC (a His tag is implied but not described); also called rabbit A2AP; Oryctolagus cuniculus A2AP
# T3 chain: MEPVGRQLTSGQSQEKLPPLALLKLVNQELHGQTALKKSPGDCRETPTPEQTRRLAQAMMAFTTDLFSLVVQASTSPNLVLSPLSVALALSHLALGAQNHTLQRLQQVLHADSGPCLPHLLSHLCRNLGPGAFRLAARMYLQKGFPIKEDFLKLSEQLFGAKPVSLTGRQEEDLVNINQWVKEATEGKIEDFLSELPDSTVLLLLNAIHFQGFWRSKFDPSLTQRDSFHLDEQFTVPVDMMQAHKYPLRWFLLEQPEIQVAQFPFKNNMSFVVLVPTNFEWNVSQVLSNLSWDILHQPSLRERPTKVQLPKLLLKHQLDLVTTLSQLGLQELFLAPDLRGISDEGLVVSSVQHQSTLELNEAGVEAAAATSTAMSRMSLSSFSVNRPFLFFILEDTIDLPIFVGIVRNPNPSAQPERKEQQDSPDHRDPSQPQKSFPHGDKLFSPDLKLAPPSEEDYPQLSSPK
# B1: TPP-14318 hIgG1 (antibody, V domains shown)
# VH: EVQLLESGGGLVQPGGSLRLSCAASGFTFDDYAMSWVRQAPGKGLEWVSAIGTGGGTYYADSVKGRFTISRDNSKNTLYLQMNSLRAEDTAVYYCAREYYDSSGYYHLEYWGQGTLVTVSS
# VL: QSVLTQPPSASGTPGQRVTISCTGSSSNIGATYDVHWYQQLPGTAPKLLIYSNNQRPSGVPDRFSGSKSGTSASLAISGLRSEDEADYYCAAWDWSLSGWVFGGGTKLTVLG
# B2: TPP-14313 hIgG1 (antibody, V domains shown)
# VH: B1 VH with E109V
# VL: QSVLTQPPSASGTPGQRVTISCTGSSSNIGATYDVHWYQQLPGTAPKLLIYSNNQRPSGVPDRFSGSKSGTSASLAISGLRSEDEADYYCAAWDWSLSGWVFGGGTKLTVL
# notes: Human IgG1 lambda
# B3: TPP-14323 hIgG1 (antibody, V domains shown)
# VH: B1 VH with E109T
# VL: B1 VL
# B4: TPP-17048 hIgG1 (antibody, V domains shown)
# VH: B1 VH with D30S, G56S, Y99G, E109D
# VL: B1 VL
# notes: Germline variant of TPP-14308
# B5: TPP-17045 hIgG1 (antibody, V domains shown)
# VH: B1 VH with R97K, Y99G, E109D
# VL: B1 VL
# notes: Germline variant of TPP-14308
# Experiments:
# human alpha2-Antiplasmin [1] = molecular target: T1, human alpha2-Antiplasmin; assay: cell-based or functional assay
# human alpha2-Antiplasmin [2] = molecular target: T1, human alpha2-Antiplasmin; assay: ELISA, coated antigen, 2nd exp.
# Experimental: (§1) A standard ELISA format was used for analyzing the binding affinity of Fabs of this invention to human and rabbit alpha-2-Antiplasmin, respectively. Antigens were coated to black 384 well Maxisorp microtiter plates (Nunc; catalogue number 460518), diluted to a concentration of 1 μg/ml in 1× Coating Buffer (Candor Bioscience; catalogue number 121125). Plates were incubated overnight at 4° C. After overnight incubation, plates were washed 2× with 50 μl/well using PBS+0.05% Tween 20. Following this, 50 μl/well of blocking buffer (Smart Block; Candor Bioscience; catalogue number 113500) was added and the plates were incubated for 1 hour at room temperature. Afterwards, plates were washed for 3× using […] PBS+0.05% Tween 20 buffer. Fabs of this invention were added at different concentrations in a final volume of 30 μl/well. Plates were incubated for 1 hour at room temperature. Following this incubation step, plates were washed for 3× using 50 μl/well of a PBS+0.05% Tween 20 buffer. For the detection of bound Fabs and full-length antibodies, the anti-Human Lambda Light Chains (Bound and Free)—Peroxidase antibody (Sigma; catalogue number A5175) was diluted by the factor of 1:10.000 in 10% Blocking Buffer. 30 μl/well of this diluted detection antibody was added and plates are incubated for 1 hour at room temperature. Following this incubation step, plates were washed for 3× using 50 μl/well of a PBS+0.05% Tween 20 buffer. As substrate, a mixture of 30 μl/well of 1:1000 diluted Amplex red (Invitrogen; catalogue number 12222; stock solution 10 mM in DMSO) and 1:10.000 of Hydrogen peroxide (Merck; catalogue number 107209; 30% stock solution) was added and the plates incubated for minutes in the dark.
# (§2) For measurement, the Infinite f500 reader (Tecan) was used. Measurement mode: Fluorescence; Top reading; Ex 535 nm; Em 590 nm.
# (§3) According to the methods described in Example 3 and Example 4, antibodies TPP-14323, TPP-14318, TPP-14314, TPP-14313, TPP-14308, TPP-14305, TPP-14303, TPP-14298, and TPP-14293 were tested for their ability to bind to and to block the activity of human alpha2-Antiplasmin in a dose-dependent manner. For each antibody, one dose response curve from two to three independent experiments performed in quadruplicate is shown as example in FIG. 7.1 to FIG. 7.18. (see Table 3.3)
# human Plasmin = human Plasmin (human, UniProt P00747 97-580; P00747 581-810, limits assumed); assay: cell-based or functional assay
# Chain of human Plasmin (P00747 97-580 limits assumed, chain 1 of 2): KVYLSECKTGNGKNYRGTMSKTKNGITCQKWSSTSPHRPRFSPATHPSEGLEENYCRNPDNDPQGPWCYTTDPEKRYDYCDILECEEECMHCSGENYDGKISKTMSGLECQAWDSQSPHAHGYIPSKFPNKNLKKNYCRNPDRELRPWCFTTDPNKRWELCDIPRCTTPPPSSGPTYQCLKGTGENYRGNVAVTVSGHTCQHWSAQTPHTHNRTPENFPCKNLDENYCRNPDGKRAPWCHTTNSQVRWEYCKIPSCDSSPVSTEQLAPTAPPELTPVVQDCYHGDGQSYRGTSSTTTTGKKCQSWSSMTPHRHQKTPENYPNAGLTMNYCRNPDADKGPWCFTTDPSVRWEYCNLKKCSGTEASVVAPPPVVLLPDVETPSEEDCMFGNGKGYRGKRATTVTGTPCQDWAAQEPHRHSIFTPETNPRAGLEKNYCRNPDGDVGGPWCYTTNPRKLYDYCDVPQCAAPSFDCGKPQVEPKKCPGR
# Chain of human Plasmin (P00747 581-810 limits assumed, chain 2 of 2): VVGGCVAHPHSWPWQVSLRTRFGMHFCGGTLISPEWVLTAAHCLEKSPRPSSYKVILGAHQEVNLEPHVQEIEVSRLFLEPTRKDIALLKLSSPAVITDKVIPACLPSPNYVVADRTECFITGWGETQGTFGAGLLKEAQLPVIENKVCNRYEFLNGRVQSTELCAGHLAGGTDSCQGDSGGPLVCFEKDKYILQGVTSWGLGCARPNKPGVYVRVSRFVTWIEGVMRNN
# human alpha2-Antiplasmin [3] = molecular target: T1, human alpha2-Antiplasmin; assay: ELISA, coated antigen, 1st exp.
# Experimental: as §1, §2, §3
# human alpha2-Antiplasmin [4] = molecular target: T1, human alpha2-Antiplasmin; assay: cell-based or functional assay; remark: listed apart in the source
# human alpha2-Antiplasmin [5] = molecular target: T1, human alpha2-Antiplasmin; assay: ELISA, coated antigen, 3rd exp.
# Experimental: as §1, §2, §3
# human alpha2-Antiplasmin [6] = molecular target: T1, human alpha2-Antiplasmin; assay: cell-based or functional assay; remark: listed apart in the source
# human alpha2-Antiplasmin [7] = molecular target: T1, human alpha2-Antiplasmin; assay: ELISA (Example 3), human alpha2-Antiplasmin coated, RFU
# Experimental: as §1, with “As substrate, a mixture of 30 μl/well of 1:1000 diluted Amplex red (Invitrogen; catalogue number 12222; stock solution 10 mM in DMSO) and 1:10.000 of Hydrogen peroxide (Merck; catalogue number 107209; 30% stock solution) was added and the plates incubated for minutes in the dark.” left out
# as §2
# According to the method described in Example 3, these 12 antibodies were tested for ability to bind human and rabbit alpha2-Antiplasmin in a dose-dependent manner. Data generated were analyzed using the GraphPadPrism software. The binding activities of the antibodies were calculated as EC50 values. […]
# human alpha2-Antiplasmin [8] = molecular target: T1, human alpha2-Antiplasmin; assay: cell-based or functional assay; remark: listed apart in the source
# human alpha2-Antiplasmin [9] = molecular target: T1, human alpha2-Antiplasmin; assay: cell-based or functional assay; remark: listed apart in the source
# [10] = molecular target: T2, cynomolgus alpha2-Antiplasmin; assay: SPR Biacore T200, antibody captured on protein G chip, A2AP as analyte, 25 C
# Experimental: (§4) Binding assays were performed on a Biacore T200 instrument at 25° C. with a protein G sensor chip and assay buffer HBS-EP+. Antibodies were captured to ˜150 RU and analytes were used at concentrations between 1.56 and 200 nM for full kinetics. As interaction partner, alpha2-Antiplasmin from human, cynomolgus and rabbit was used. Regeneration was performed with glycine-HCl pH 1.5. Kinetic parameters were derived by fitting experimental sensorgrams to a 1:1 Langmuir binding model.
# [11] = molecular target: T3, rabbit alpha2-Antiplasmin; assay: as above
# Experimental: as §4
# human alpha2-Antiplasmin [12] = molecular target: T1, human alpha2-Antiplasmin; assay: as above
# Experimental: as §4
# human alpha2-Antiplasmin [13] = molecular target: T1, human alpha2-Antiplasmin; assay: cell-based or functional assay; remark: listed apart in the source
# human alpha2-Antiplasmin [14] = molecular target: T1, human alpha2-Antiplasmin; assay: ELISA, coated antigen, quantified unpurified antibody, 1st exp.
# human alpha2-Antiplasmin [15] = molecular target: T1, human alpha2-Antiplasmin; assay: ELISA (Example 3), human alpha2-Antiplasmin coated, RFU; remark: listed apart in the source
# Experimental: as §1, with “30 μl/well of this diluted detection antibody was added and plates are incubated for 1 hour at room temperature. Following this incubation step, plates were washed for 3× using 50 μl/well of a PBS+0.05% Tween 20 buffer. As substrate, a mixture of 30 μl/well of 1:1000 diluted Amplex red (Invitrogen; catalogue number 12222; stock solution 10 mM in DMSO) and 1:10.000 of Hydrogen peroxide (Merck; catalogue number 107209; 30% stock solution) was added and the plates incubated for minutes in the dark.” left out
# as §2
# human alpha2-Antiplasmin [16] = molecular target: T1, human alpha2-Antiplasmin; assay: ELISA, coated antigen, quantified unpurified antibody, 2nd exp.
# human alpha2-Antiplasmin [17] = molecular target: T1, human alpha2-Antiplasmin; assay: cell-based or functional assay; remark: listed apart in the source
# human alpha2-Antiplasmin [18] = molecular target: T1, human alpha2-Antiplasmin; assay: cell-based or functional assay; remark: listed apart in the source
# human alpha2-Antiplasmin [19] = molecular target: T1, human alpha2-Antiplasmin; assay: ELISA, coated antigen, quantified unpurified antibody, 3rd exp.
# Experimental: as §1, §2
Binder,EC50 (human alpha2-Antiplasmin [2]) [nM],"IC50 [M], inhibition of plasmin proteolytic activity (human Plasmin) [M]",EC50 (human alpha2-Antiplasmin [3]) [nM],"function blocking activity [IC50 M], 1st exp. (human alpha2-Antiplasmin [4]) [nM]","function blocking activity [IC50 M], 2nd exp. (human alpha2-Antiplasmin [4]) [nM]","function blocking activity [IC50 M], 3rd exp. (human alpha2-Antiplasmin [4]) [nM]",EC50 (human alpha2-Antiplasmin [5]) [nM],Kd [10] [nM],Kd [11] [nM],Kd (human alpha2-Antiplasmin [12]) [nM],"IC50, A2AP function blocking assay (Example 10) (human alpha2-Antiplasmin [13]) [nM]",EC50 (human alpha2-Antiplasmin [14]) [nM],EC50 (read off the curve) (human alpha2-Antiplasmin [15]) [nM],EC50 (human alpha2-Antiplasmin [16]) [nM],"function blocking activity [IC50 M], 1st exp. (human alpha2-Antiplasmin [17]) [nM]","function blocking activity [IC50 M], 2nd exp. (human alpha2-Antiplasmin [17]) [nM]",also measured
B1,59,> 1e-05,5.7,20,25,22,61,–,–,–,–,–,–,–,–,–,"EC50 (read off the curve); function blocking assay (Example 4), RFU of plasmin substrate cleavage (human alpha2-Antiplasmin [1]): ~20 nM"
B2,35,> 5e-06,3.3,12,20,13,34,–,–,–,–,–,–,–,–,–,"EC50 (read off the curve); function blocking assay (Example 4), RFU of plasmin substrate cleavage (human alpha2-Antiplasmin [6]): ~10 nM; EC50 (read off the curve) (human alpha2-Antiplasmin [7]): ~3 nM"
B3,73,> 1e-05,7,20,20,29,71,–,–,–,–,–,–,–,–,–,"EC50 (read off the curve); function blocking assay (Example 4), RFU of plasmin substrate cleavage (human alpha2-Antiplasmin [8]): ~20 nM"
B4,–,> 1e-05,–,–,–,–,–,5.8,9.7,7.9,1.2,0.18,~0.2,0.36,0.28,0.39,"EC50 (read off the curve); function blocking assay (Example 4), RFU of plasmin substrate cleavage (human alpha2-Antiplasmin [9]): ~0.3 nM; function blocking activity [IC50 M], 3rd exp. (human alpha2-Antiplasmin [17]): 0.3 nM"
B5,–,> 1e-05,–,–,–,–,–,11,49,14,0.14,0.085,~0.08,0.12,0.4,0.5,"EC50 (read off the curve); function blocking assay (Example 4), RFU of plasmin substrate cleavage (human alpha2-Antiplasmin [18]): ~0.4 nM; EC50 (human alpha2-Antiplasmin [19]): 0.11 nM"
